The target in the assay is YFP(N)-Sso1p (S. cerevisiae) (UniProt P32867). Put plainly: split reporter.
Chain of UniProt P32867 (P32867 whole entry): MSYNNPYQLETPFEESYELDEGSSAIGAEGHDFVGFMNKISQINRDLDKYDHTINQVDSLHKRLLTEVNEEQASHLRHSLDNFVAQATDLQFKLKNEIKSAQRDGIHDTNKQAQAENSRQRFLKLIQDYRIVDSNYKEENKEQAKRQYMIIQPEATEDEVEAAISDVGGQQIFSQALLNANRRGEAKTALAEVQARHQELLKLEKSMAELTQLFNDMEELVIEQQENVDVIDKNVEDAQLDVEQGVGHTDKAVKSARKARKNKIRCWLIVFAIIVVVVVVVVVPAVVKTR

Substance “Sec1p(658–724)-YFP(C) (from UniProt P30619 658-724) (domain or fragment)” had a percent stronger BiFC signal than Sec1p(658–724)-Sso2p of 22%.

For the origin of these results see article PMC3020918.
